Experiments:
UGT76G1 [1] = target: T1, UGT76G1 (Stevia rebaudiana, UniProt Q6VAB4, H25A); experiment: X-ray crystal structure; type: binding; settings: sodium citrate pH 5.4, PEG 4000; 1 mM UDP
T1 construct: synthetic gene in pET21a (NdeI/XhoI), C-terminal hexa-histidine tag, E. coli BL21 (DE3), monomer

UGT76G1 [2] = target: T2, UGT76G1 (Stevia rebaudiana, UniProt Q6VAB4); experiment: X-ray crystal structure; type: binding
T2 construct: synthetic gene in pET21a (NdeI/XhoI), C-terminal hexa-histidine tag, E. coli BL21 (DE3), monomer
T2 sequence (Q6VAB4 1-458): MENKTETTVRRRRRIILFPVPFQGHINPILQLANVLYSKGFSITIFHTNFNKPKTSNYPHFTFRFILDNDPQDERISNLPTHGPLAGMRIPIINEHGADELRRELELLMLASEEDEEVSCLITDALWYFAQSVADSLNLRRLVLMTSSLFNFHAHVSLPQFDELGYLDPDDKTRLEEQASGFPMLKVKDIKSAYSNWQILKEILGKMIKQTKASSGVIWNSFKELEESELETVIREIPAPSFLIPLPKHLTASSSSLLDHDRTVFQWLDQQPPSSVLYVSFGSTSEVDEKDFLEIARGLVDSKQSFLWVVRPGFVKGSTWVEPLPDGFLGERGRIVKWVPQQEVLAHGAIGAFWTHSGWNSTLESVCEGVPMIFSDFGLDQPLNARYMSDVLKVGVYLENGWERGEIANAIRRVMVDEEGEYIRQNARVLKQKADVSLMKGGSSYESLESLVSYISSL

purified protein [3] = substrate: C=C1C[C@@]23CC[C@H]4[C@@](C)(CCC[C@@]4(C)C(=O)O[C@@H]4O[C@H](CO)[C@@H](O)[C@H](O)[C@H]4O)[C@@H]2CC[C@]1(O[C@@H]1O[C@H](CO)[C@@H](O)[C@H](O)[C@H]1O[C@@H]1O[C@H](CO)[C@@H](O)[C@H](O)[C@H]1O)C3; experiment: purified protein; settings: UDPG 100 μM; transfer at R1 (initial rate, <10% consumption)
purified protein [4] = substrate: C=C1C[C@@]23CC[C@H]4[C@@](C)(CCC[C@@]4(C)C(=O)O[C@@H]4O[C@H](CO)[C@@H](O)[C@H](O)[C@H]4O)[C@@H]2CC[C@]1(O[C@@H]1O[C@H](CO)[C@@H](O)[C@H](O[C@@H]2O[C@H](CO)[C@@H](O)[C@H](O)[C@H]2O)[C@H]1O[C@@H]1O[C@H](CO)[C@@H](O)[C@H](O)[C@H]1O)C3; experiment: purified protein; settings: UDPG 100 μM; transfer at R2
[5] = substrate: C=C1C[C@@]23CC[C@H]4[C@@](C)(CCC[C@@]4(C)C(=O)O[C@@H]4O[C@H](CO)[C@@H](O)[C@H](O)[C@H]4O[C@@H]4O[C@H](CO)[C@@H](O)[C@H](O)[C@H]4O)[C@@H]2CC[C@]1(O[C@@H]1O[C@H](CO)[C@@H](O)[C@H](O)[C@H]1O[C@@H]1O[C@H](CO)[C@@H](O)[C@H](O)[C@H]1O)C3; experiment: UDP-Glo glycosyltransferase assay, Michaelis-Menten fit; type: biochemical, Stevia rebaudiana; settings: UDPG 100 μM; transfer at R1 (initial rate, <10% consumption)
From the text: (§1) UDP-Glo glycosyltransferase assay, Michaelis-Menten fit on UGT76G1

[6] = substrate: C=C1C[C@@]23CC[C@H]4[C@@](C)(CCC[C@@]4(C)C(=O)O)[C@@H]2CC[C@]1(O[C@@H]1O[C@H](CO)[C@@H](O)[C@H](O)[C@H]1O[C@@H]1O[C@H](CO)[C@@H](O)[C@H](O)[C@H]1O)C3; experiment: as above; type: biochemical, Stevia rebaudiana; settings: UDPG 100 μM; transfer at R1
From the text: as §1

[7] = substrate: C=C1C[C@@]23CC[C@H]4[C@@](C)(CCC[C@@]4(C)C(=O)O[C@@H]4O[C@H](CO)[C@@H](O)[C@H](O)[C@H]4O)[C@@H]2CC[C@]1(O[C@@H]1O[C@H](CO)[C@@H](O)[C@H](O)[C@H]1O)C3; experiment: as above; type: biochemical, Stevia rebaudiana; settings: UDPG 100 μM; transfer at R1 (initial rate, <10% consumption)
From the text: as §1

[8] = substrate: O=c1ccn([C@@H]2O[C@H](CO[P@@](=O)(O)O[P@@](=O)(O)O[C@H]3O[C@H](CO)[C@@H](O)[C@H](O)[C@H]3O)[C@@H](O)[C@H]2O)c(=O)[nH]1; experiment: as above; type: biochemical, Stevia rebaudiana; settings: sugar donor; acceptor STB 50 μM
From the text: as §1

T1 sequence (Q6VAB4 whole entry H25A): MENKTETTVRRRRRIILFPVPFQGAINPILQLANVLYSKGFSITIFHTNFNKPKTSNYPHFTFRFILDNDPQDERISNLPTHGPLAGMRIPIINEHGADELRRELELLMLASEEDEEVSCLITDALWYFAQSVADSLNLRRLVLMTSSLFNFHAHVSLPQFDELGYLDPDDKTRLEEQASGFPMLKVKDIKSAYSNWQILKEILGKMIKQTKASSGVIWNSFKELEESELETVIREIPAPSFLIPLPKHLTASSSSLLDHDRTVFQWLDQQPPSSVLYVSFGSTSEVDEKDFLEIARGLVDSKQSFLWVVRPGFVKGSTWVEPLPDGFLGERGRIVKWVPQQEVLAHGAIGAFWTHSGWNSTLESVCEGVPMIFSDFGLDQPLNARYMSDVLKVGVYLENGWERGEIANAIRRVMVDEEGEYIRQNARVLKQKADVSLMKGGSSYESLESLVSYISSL

`O=c1ccn([C@@H]2O[C@H](COP(=O)(O)OP(=O)(O)O)[C@@H](O)[C@H]2O)c(=O)[nH]1` [UDP] was tested, and the X-ray crystal structure (UGT76G1 [1]) was “both the wild type and H25A mutant of UGT76G1 with UDP” and the X-ray crystal structure (UGT76G1 [2]; sodium citrate pH 5.4, PEG 4000, 1 mM UDP) was “both the wild type and H25A mutant of UGT76G1 with UDP”.

In the case of `C=C1C[C@@]23CC[C@H]4[C@@](C)(CCC[C@@]4(C)C(=O)O[C@@H]4O[C@H](CO)[C@@H](O)[C@H](O)[C@H]4O)[C@@H]2CC[C@]1(O[C@@H]1O[C@H](CO)[C@@H](O)[C@H](O)[C@H]1O)C3` [Rubu], the X-ray crystal structure (UGT76G1 [2]; ternary complex with UDP, bound at active site, second remote molecule called artifact) is reported as “the wild type with UDP and Rubu”.

B1: UGT76G1 (Stevia rebaudiana) (protein)
chain: MENKTETTVRRRRRIILFPVPFQGHINPILQLANVLYSKGFSITIFHTNFNKPKTSNYPHFTFRFILDNDPQDERISNLPTHGPLAGMRIPIINEHGADELRRELELLMLASEEDEEVSCLITDALWYFAQSVADSLNLRRLVLMTSSLFNFHAHVSLPQFDELGYLDPDDKTRLEEQASGFPMLKVKDIKSAYSNWQILKEILGKMIKQTKASSGVIWNSFKELEESELETVIREIPAPSFLIPLPKHLTASSSSLLDHDRTVFQWLDQQPPSSVLYVSFGSTSEVDEKDFLEIARGLVDSKQSFLWVVRPGFVKGSTWVEPLPDGFLGERGRIVKWVPQQEVLAHGAIGAFWTHSGWNSTLESVCEGVPMIFSDFGLDQPLNARYMSDVLKVGVYLENGWERGEIANAIRRVMVDEEGEYIRQNARVLKQKADVSLMKGGSSYESLESLVSYISSL
notes: synthetic gene in pET21a (NdeI/XhoI), C-terminal hexa-histidine tag, E. coli BL21 (DE3), monomer
In the case of B1, the Km (purified protein [3]) is reported as 25.5 ± 3.4 µM, the kcat (purified protein [3]) is reported as 0.697 s⁻¹ and the kcat/Km (purified protein [3]) is reported as 27300 M⁻¹ s⁻¹. For the same molecule, the Km (purified protein [4]) was 243.4 ± 28.1 µM, the kcat (purified protein [4]) was 0.002 s⁻¹ and the kcat/Km (purified protein [4]) was 8 M⁻¹ s⁻¹. It also gave a Km [5] of 9.2 ± 0.7 µM, a kcat [5] of 0.355 ± 0.00833 s⁻¹ and a kcat/Km [5] of 38600 M⁻¹ s⁻¹. The Km [6] was 4.8 ± 0.4 µM, the kcat [6] was 0.08 ± 0.00167 s⁻¹ and the kcat/Km [6] was 16500 M⁻¹ s⁻¹. The Km [7] was 54.4 ± 4.0 µM, the kcat [7] was 0.0983 ± 0.00167 s⁻¹ and the kcat/Km [7] was 1800 M⁻¹ s⁻¹. The Km [8] was 5.6 ± 0.4 µM, the kcat [8] was 0.0683 ± 0.00167 s⁻¹ and the kcat/Km [8] was 12400 M⁻¹ s⁻¹.

Reference: paper PMC6642264, “Hydrophobic recognition allows the glycosyltransferase UGT76G1 to catalyze its substrate in two orientations” (Nature Communications, 2019)
